Test results reported in patent publication US20110300138A1 (published 2011).
Read-outs that look alike come from different tables or passages of the source. Each block holds one substance with its values, some of them ahead of it.

Columns and labels:
Assay in all cases: cell-based or functional assay
[1] = biological target: TSHR with Arg255 mutated to Ala, expressed in CHO cells (human) (UniProt P16473)
[2] = biological target: TSHR with Asp160 mutated to Lys, expressed in CHO cells (human) (UniProt P16473)
[3] = biological target: TSHR with Trp258 mutated to Ala (human) (UniProt P16473)
[4] = biological target: TSHR with Glu107 mutated to Ala expressed in CHO cells (human) (UniProt P16473)
[5] = biological target: TSHR with Glu178 mutated to Ala expressed in CHO cells (human) (UniProt P16473)
[6] = biological target: TSHR with His105 mutated to Ala (expressed in CHO cells) (human) (UniProt P16473)
[7] = biological target: TSHR with Tyr82 mutated to Ala expressed in CHO cells (human) (UniProt P16473)
[8] = biological target: TSHR with Tyr206 mutated to Ala (expressed in CHO cells) (human) (UniProt P16473)
[9] = biological target: TSHR with Ser281 mutated to Ala, expressed in CHO cells (human) (UniProt P16473)
[10] = biological target: TSHR with Tyr185 mutated to Ala, expressed in CHO cells (human) (UniProt P16473)

% inhibition of TSH stimulation; 5B3 10 µg/mL [1]: 12%
% inhibition of TSH stimulation; 5B3 100 µg/mL [1]: 2%
Cyclic AMP produced; 5B3 10 µg/mL + TSH 3 ng/mL [1]: 56.4 pmol/mL
Cyclic AMP produced; 5B3 100 µg/mL + TSH 3 ng/mL [1]: 62.5 pmol/mL
Mutated/wild type (%) of cyclic AMP produced; 5B3 10 µg/mL + TSH 3 ng/mL [1]: 75%
Mutated/wild type (%) of cyclic AMP produced; 5B3 100 µg/mL + TSH 3 ng/mL [1]: 92%
% inhibition of TSH stimulation (stimulator given as M22), mutated TSHR; 5B3 10 µg/mL [2]: 0%
% inhibition of TSH stimulation (stimulator given as M22), mutated TSHR; 5B3 100 µg/mL [2]: 11%
Mutated/wild type (%) of cyclic AMP produced; test sample: 5B3 10 µg/mL + M22 [2]: 69%
Mutated/wild type (%) of cyclic AMP produced; test sample: 5B3 100 µg/mL + M22 [2]: 60%
Substance: 5B3 IgG (antibody)

Cyclic AMP produced, TSH 0.01 ng/mL, Experiment 1 [3]: 1.93 pmol/mL
Cyclic AMP produced, TSH 0.01 ng/mL, Experiment 2 [3]: 1.56 pmol/mL
Cyclic AMP produced, TSH 0.03 ng/mL, Experiment 1 [3]: 2.88 pmol/mL
Cyclic AMP produced, TSH 0.03 ng/mL, Experiment 2 [3]: 2.76 pmol/mL
Cyclic AMP produced, TSH 0.1 ng/mL, Experiment 1 [3]: 7.51 pmol/mL
Cyclic AMP produced, TSH 0.1 ng/mL, Experiment 2 [3]: 7.04 pmol/mL
Cyclic AMP produced, TSH 0.3 ng/mL, Experiment 1 [3]: 22.3 pmol/mL
Cyclic AMP produced, TSH 0.3 ng/mL, Experiment 2 [3]: 17.3 pmol/mL
Cyclic AMP produced, TSH 1 ng/mL, Experiment 1 [3]: 45.7 pmol/mL
Cyclic AMP produced, TSH 1 ng/mL, Experiment 2 [3]: 49.2 pmol/mL
Cyclic AMP produced; TSH 3 ng/mL; Experiment 1 [3]: 54 pmol/mL
Cyclic AMP produced; TSH 3 ng/mL; Experiment 2 [3]: 84.7 pmol/mL
Mutated/Wild type (%) of cyclic AMP produced, TSH 0.01 ng/mL, Experiment 1 [3]: 158%
Mutated/Wild type (%) of cyclic AMP produced, TSH 0.01 ng/mL, Experiment 2 [3]: 77%
Mutated/Wild type (%) of cyclic AMP produced, TSH 0.03 ng/mL, Experiment 1 [3]: 156%
Mutated/Wild type (%) of cyclic AMP produced, TSH 0.03 ng/mL, Experiment 2 [3]: 141%
Mutated/Wild type (%) of cyclic AMP produced, TSH 0.1 ng/mL, Experiment 1 [3]: 154%
Mutated/Wild type (%) of cyclic AMP produced, TSH 0.1 ng/mL, Experiment 2 [3]: 156%
Mutated/Wild type (%) of cyclic AMP produced, TSH 0.3 ng/mL, Experiment 1 [3]: 128%
Mutated/Wild type (%) of cyclic AMP produced, TSH 0.3 ng/mL, Experiment 2 [3]: 128%
Mutated/Wild type (%) of cyclic AMP produced, TSH 1 ng/mL, Experiment 1 [3]: 86%
Mutated/Wild type (%) of cyclic AMP produced, TSH 1 ng/mL, Experiment 2 [3]: 114%
Mutated/wild type (%) of cyclic AMP produced; TSH 3 ng/mL; Experiment 1 [3]: 76%
Mutated/wild type (%) of cyclic AMP produced; TSH 3 ng/mL; Experiment 2 [3]: 100%
% inhibition of TSH stimulation; TSH (2) [4]: 12%
Cyclic AMP produced, mutated TSHR, TSH 0.01 ng/mL [4]: 8.2 pmol/mL
Cyclic AMP produced, mutated TSHR, TSH 0.03 ng/mL [4]: 8.92 pmol/mL
Cyclic AMP produced, mutated TSHR, TSH 0.1 ng/mL [4]: 8.24 pmol/mL
Cyclic AMP produced, mutated TSHR, TSH 0.3 ng/mL [4]: 15.7 pmol/mL
Cyclic AMP produced, mutated TSHR, TSH 1 ng/mL [4]: 30.2 pmol/mL
Cyclic AMP produced, mutated TSHR, TSH 3 ng/mL [4]: 43.9 pmol/mL
Cyclic AMP produced; TSH 3 ng/mL [4]: 83.7 pmol/mL
Cyclic AMP produced; TSH (2) [4]: 73.2 pmol/mL
Mutated/Wild type (%) of cyclic AMP produced, TSH 0.01 ng/mL [4]: 582%
Mutated/Wild type (%) of cyclic AMP produced, TSH 0.03 ng/mL [4]: 448%
Mutated/Wild type (%) of cyclic AMP produced, TSH 0.1 ng/mL [4]: 149%
Mutated/Wild type (%) of cyclic AMP produced, TSH 0.3 ng/mL [4]: 97%
Mutated/Wild type (%) of cyclic AMP produced, TSH 1 ng/mL [4]: 68%
Mutated/wild type (%) of cyclic AMP produced; TSH 3 ng/mL [4]: 82%
Mutated/wild type (%) of cyclic AMP produced; TSH (2) [4]: 78%
Mutated/wild type (%) of cyclic AMP produced; TSH 3 ng/mL ([4]; record 2): 110%
Mutated/Wild type (%) of cyclic AMP produced, TSH 0.01 ng/mL [5]: 467%
Mutated/Wild type (%) of cyclic AMP produced, TSH 0.03 ng/mL [5]: 240%
Mutated/Wild type (%) of cyclic AMP produced, TSH 0.1 ng/mL [5]: 115%
Mutated/Wild type (%) of cyclic AMP produced, TSH 0.3 ng/mL [5]: 71%
Mutated/Wild type (%) of cyclic AMP produced, TSH 1 ng/mL [5]: 54%
Cyclic AMP produced (pmol/mL), TSH 0.01 ng/mL [6]: 4.8 pmol/mL
Cyclic AMP produced (pmol/mL), TSH 0.03 ng/mL [6]: 3.55 pmol/mL
Cyclic AMP produced (pmol/mL), TSH 0.1 ng/mL [6]: 4.82 pmol/mL
Cyclic AMP produced (pmol/mL), TSH 0.3 ng/mL [6]: 11.9 pmol/mL
Cyclic AMP produced (pmol/mL), TSH 1 ng/mL [6]: 34.6 pmol/mL
Cyclic AMP produced (pmol/mL), TSH 3 ng/mL [6]: 58.3 pmol/mL
Mutated/Wild type (%), TSH 0.01 ng/mL [6]: 308%
Mutated/Wild type (%), TSH 0.03 ng/mL [6]: 147%
Mutated/Wild type (%), TSH 0.1 ng/mL [6]: 118%
Mutated/Wild type (%), TSH 0.3 ng/mL [6]: 104%
Mutated/Wild type (%), TSH 1 ng/mL [6]: 76%
Mutated/Wild type (%), TSH 3 ng/mL [6]: 75%
% inhibition of TSH stimulation; TSH (2); Experiment 1 [7]: 44%
% inhibition of TSH stimulation; TSH (2); Experiment 2 [7]: 22%
Cyclic AMP produced; TSH 3 ng/mL; Experiment 1 [7]: 166 pmol/mL
Cyclic AMP produced; TSH 3 ng/mL; Experiment 2 [7]: 74.6 pmol/mL
Cyclic AMP produced; TSH (2); Experiment 1 [7]: 92.3 pmol/mL
Cyclic AMP produced; TSH (2); Experiment 2 [7]: 57.9 pmol/mL
Mutated/wild type (%) of cyclic AMP produced; TSH 3 ng/mL; Experiment 1 [7]: 108%
Mutated/wild type (%) of cyclic AMP produced; TSH 3 ng/mL; Experiment 2 [7]: 125%
Mutated/wild type (%) of cyclic AMP produced; TSH (2); Experiment 1 [7]: 58%
Mutated/wild type (%) of cyclic AMP produced; TSH (2); Experiment 2 [7]: 94%
Mutated/Wild type (%) of cyclic AMP produced, TSH 0.01 ng/mL, Experiment 1 [8]: 83%
Mutated/Wild type (%) of cyclic AMP produced, TSH 0.01 ng/mL, Experiment 2 [8]: 135%
Mutated/Wild type (%) of cyclic AMP produced, TSH 0.03 ng/mL, Experiment 1 [8]: 124%
Mutated/Wild type (%) of cyclic AMP produced, TSH 0.03 ng/mL, Experiment 2 [8]: 144%
Mutated/Wild type (%) of cyclic AMP produced, TSH 0.1 ng/mL, Experiment 1 [8]: 93%
Mutated/Wild type (%) of cyclic AMP produced, TSH 0.1 ng/mL, Experiment 2 [8]: 178%
Mutated/Wild type (%) of cyclic AMP produced, TSH 0.3 ng/mL, Experiment 1 [8]: 104%
Mutated/Wild type (%) of cyclic AMP produced, TSH 0.3 ng/mL, Experiment 2 [8]: 110%
Mutated/Wild type (%) of cyclic AMP produced, TSH 1 ng/mL, Experiment 1 [8]: 66%
Mutated/Wild type (%) of cyclic AMP produced, TSH 1 ng/mL, Experiment 2 [8]: 93%
Mutated/wild type (%) of cyclic AMP produced; TSH 3 ng/mL; Experiment 1 [8]: 62%
Mutated/wild type (%) of cyclic AMP produced; TSH 3 ng/mL; Experiment 2 [8]: 97%
% inhibition of TSH stimulation; TSH (2) (run at the end of assay, against the first TSH sample); Experiment 1 [9]: 19%
% inhibition of TSH stimulation; TSH (2) (run at the end of assay, against the first TSH sample); Experiment 2 [9]: 4%
Cyclic AMP produced (pmol/mL), TSH 0.01 ng/mL, mutated TSHR [9]: 2.84 pmol/mL
Cyclic AMP produced (pmol/mL), TSH 0.03 ng/mL, mutated TSHR [9]: 4.69 pmol/mL
Cyclic AMP produced (pmol/mL), TSH 0.1 ng/mL, mutated TSHR [9]: 11.3 pmol/mL
Cyclic AMP produced (pmol/mL), TSH 0.3 ng/mL, mutated TSHR [9]: 27.5 pmol/mL
Cyclic AMP produced (pmol/mL), TSH 1 ng/mL, mutated TSHR [9]: 51.6 pmol/mL
Cyclic AMP produced (pmol/mL), TSH 3 ng/mL, mutated TSHR [9]: 68 pmol/mL
Mutated/Wild type (%), TSH 0.01 ng/mL [9]: 140%
Mutated/Wild type (%), TSH 0.03 ng/mL [9]: 128%
Mutated/Wild type (%), TSH 0.1 ng/mL [9]: 117%
Mutated/Wild type (%), TSH 0.3 ng/mL [9]: 88%
Mutated/Wild type (%), TSH 1 ng/mL [9]: 85%
Mutated/Wild type (%), TSH 3 ng/mL [9]: 82%
Mutated/wild type (%) of cyclic AMP produced; test sample TSH (3 ng/mL); Experiment 1 [9]: 79%
Mutated/wild type (%) of cyclic AMP produced; test sample TSH (3 ng/mL); Experiment 2 [9]: 92%
Mutated/wild type (%) of cyclic AMP produced; test sample TSH (2) (3 ng/mL, run at the end of assay); Experiment 1 [9]: 57%
Mutated/wild type (%) of cyclic AMP produced; test sample TSH (2) (3 ng/mL, run at the end of assay); Experiment 2 [9]: 79%
Cyclic AMP produced (pmol/mL), mutated TSHR, TSH 0.01 ng/mL, Experiment 1 [10]: 3.33 pmol/mL
Cyclic AMP produced (pmol/mL), mutated TSHR, TSH 0.01 ng/mL, Experiment 2 [10]: 3.82 pmol/mL
Cyclic AMP produced (pmol/mL), mutated TSHR, TSH 0.03 ng/mL, Experiment 1 [10]: 3.85 pmol/mL
Cyclic AMP produced (pmol/mL), mutated TSHR, TSH 0.03 ng/mL, Experiment 2 [10]: 5.6 pmol/mL
Cyclic AMP produced (pmol/mL), mutated TSHR, TSH 0.1 ng/mL, Experiment 1 [10]: 8.36 pmol/mL
Cyclic AMP produced (pmol/mL), mutated TSHR, TSH 0.1 ng/mL, Experiment 2 [10]: 12.3 pmol/mL
Cyclic AMP produced (pmol/mL), mutated TSHR, TSH 0.3 ng/mL, Experiment 1 [10]: 21.1 pmol/mL
Cyclic AMP produced (pmol/mL), mutated TSHR, TSH 0.3 ng/mL, Experiment 2 [10]: 30.5 pmol/mL
Cyclic AMP produced (pmol/mL), mutated TSHR, TSH 1 ng/mL, Experiment 1 [10]: 37.8 pmol/mL
Cyclic AMP produced (pmol/mL), mutated TSHR, TSH 1 ng/mL, Experiment 2 [10]: 50.6 pmol/mL
Cyclic AMP produced (pmol/mL), mutated TSHR, TSH 3 ng/mL, Experiment 1 [10]: 42.9 pmol/mL
Cyclic AMP produced (pmol/mL), mutated TSHR, TSH 3 ng/mL, Experiment 2 [10]: 56.3 pmol/mL
Mutated/Wild type (%), TSH 0.01 ng/mL, Experiment 1 [10]: 128%
Mutated/Wild type (%), TSH 0.01 ng/mL, Experiment 2 [10]: 98%
Mutated/Wild type (%), TSH 0.03 ng/mL, Experiment 1 [10]: 90%
Mutated/Wild type (%), TSH 0.03 ng/mL, Experiment 2 [10]: 101%
Mutated/Wild type (%), TSH 0.1 ng/mL, Experiment 1 [10]: 76%
Mutated/Wild type (%), TSH 0.1 ng/mL, Experiment 2 [10]: 93%
Mutated/Wild type (%), TSH 0.3 ng/mL, Experiment 1 [10]: 65%
Mutated/Wild type (%), TSH 0.3 ng/mL, Experiment 2 [10]: 86%
Mutated/Wild type (%), TSH 1 ng/mL, Experiment 1 [10]: 45%
Mutated/Wild type (%), TSH 1 ng/mL, Experiment 2 [10]: 62%
Mutated/Wild type (%), TSH 3 ng/mL, Experiment 1 [10]: 35%
Substance: TSH (ligand)
